Target: H5N1 A/Vietnam/1203/2004 HA1 (1-330) protein from 293 Flp-In cells (influenza A virus A/Vietnam/1203/2004 (H5N1))
Assay: SEC

H5N1 A/Vietnam/1203/2004 HA1 (1-330) protein from 293 Flp-In cells (domain or fragment)
stoichiometry N: 3

— publication PMC3046144
